Results as given in PMC12311895, “Single-Molecule Protein Interactions and Unfolding Revealed by Plasmon-Enhanced Fluorescence” (Analytical Chemistry, 2025).
Where no end group is shown, it is not given here.

Biological target: T1, MBP-PDZ protein (Erbin PDZ) with a single cysteine, conjugated to DNA (UniProt Q96RT1 1321-1410, ATTO 532 (labelled with ATTO 532-NHS); amine-modified DNA oligonucleotide coupled through sulfo-SMCC to the single cysteine between MBP and PDZ)
T1 construct: stretch between MBP and the PDZ domain that holds the single introduced cysteine; Erbin PDZ domain; Held on DNA-coated 40 by 80 nm gold nanorods by DNA hybridisation; About 50% of the protein in the conjugation mixture carried no DNA; also called Erbin PDZ protein; PDZ-DNA; not shown: MBP, N-terminal, kept
Assay: single-molecule plasmon-enhanced fluorescence microscopy (TIRF); MBP-PDZ held on gold nanorods (40 by 80 nm) by DNA hybridisation, particles immobilised on glass; ATTO 655-labeled peptide in solution; 637 nm laser; 20 ms exposure; koff from bright times (double exponential fit), kon from event frequency against proteins per particle
Conditions: both partners purified

Kd: 1 to 5.1 µM
kon: 1.2e+07 M⁻¹ s⁻¹
B1: ATTO 655-labeled target peptide (peptide)
chain: CGAGRGSIDTWV
modifications: also: ATTO 655 label (site not given here)
